# Results from paper doi:10.1101/2024.07.16.603715.
# Target: PTPRD/S (signal of the anti-PTPR blot in BN-PAGE)
# Experiment: native gel or EMSA
substance,measurement,value
tetraspanin T178B (natural protein),stoichiometry N,1
